Test results as given in US6825165B1, “Betacellulin modification” (Takeda Chemical Industries, Ltd., priority 1998, dated 2004).

What was measured:
[1] = system: PLAP expression AR42J cells; test: β cell differentiation promoting activity using human placenta alkaline phosphatase expression AR42J cells, Example 20; format: cell-based; conditions: 5 days incubation, read-out: BTC activity EC50
Procedure: 100 μL of these suspensions were inoculated to 96 well plates and incubated for 5 days at 37° C. in carbon dioxide gas incubators (5% carbon dioxide gas, 95% air). After 5 days, the culture supernatant were treated for 30 minutes at 65° C., and 50 μL was then added to 96-well microplates containing 50 μL of 2×SEAP (2M diethanolamine, 1 mM MgCl2, 20 mM homoarginine). 10 μL of 20 mg/mL p-nitrophenylphosphoric acid (Sigma) was added, and a reaction was brought about for 16 hours at 37° C. The ratio between EGF activity and the BTC activity of all the muteins decreased to about 5% of that of the Met-80 residue betacellulin, and was about the same as that of the Met-76 residue betacellulin, with no apparent influence by the N terminal deletion.

[2] = system: PLAP expression AR42J cells; test: Selection of PLAP expression AR42J clones: alkaline phosphatase activity with and without betacellulin; format: cell-based; conditions: 20 ng/mL Met-80 residue betacellulin, 4 days culture
Procedure: (§1) The differentiation promoting activity into β cells was also determined using AR42J cells transformed with the vector having alkaline phosphatase which had been ligated as a reporter downstream of the insulin promoter. Specifically, cells which have differentiated into β cells by addition of betacellulin produce alkaline phosphatase. As a result, by assaying the alkaline phosphatase activity, the differentiation promoting activity into β cells can be quantitatively assayed.
The pMCneopolyA plasmid (Stratagene) containing the neor gene of TnS and the PLAP expression plasmid pTB1898 were simultaneously introduced into AR42J cells using the transfection reagent TransIT™-LT1 (Mirus, PenVera Corporation). The plasmid introduced cells were then cultured for 2 days in DMEM supplemented with 10% fetal calf serum, and the culture was then continued in selection medium supplemented with 800 μg/mL G418 (geneticin, Gibco BRL). Clones were isolated by limiting dilution of cells growing with G418 resistance.
Cells of each clone were seeded to 24 well plates and cultured for 4 days with and without the addition of 20 ng/mL Met-80 residue betacellulin. The supernatant was collected and heat treated for 30 minutes at 65° C., and the alkaline phosphatase activity in the media was then assayed. Clones showing increased alkaline phosphatase activity with the addition of 80-residue betacellulin were selected.

AR42J cells [3] = test: β cell differentiation promoting activity using AR42J cells (anti-insulin immunofluorescence), Example 9; format: cell-based; conditions: 5 days incubation, anti-insulin antibody/FITC staining (FIG. 5)
From the text: Cells of the AR42J cell line derived from pancreatic cancer induced by chemical carcinogens (Christophe, Am. J. Physiol., 266: G963 (1994)) were suspended to a concentration of 10^5 cells/mL using Dulbecco's modified Eagle MEM medium containing 10% fetal calf serum and the Met-77 residue betacellulin prepared in Example 3, the Met-76 residue betacellulin prepared in Example 6, or the Met-80 residue betacellulin prepared in accordance with the method in Japanese Unexamined Patent Application (Kokai) H10-191989. 500 μL of these suspensions were inoculated to chamber slides and incubated for 5 days at 37° C. in carbon dioxide gas incubators (5% carbon dioxide gas, 95% air). After 5 days, the cells were washed once with PBS, fixed in 10% formaldehyde, and treated for 5 min with 0.1% Triton X-100. Block Ace (Snow Brand, Japan) was then added for 40 minutes of blocking at room temperature. Anti-insulin antibodies (by Advanced Immunochemicals) diluted with 10% Block Ace were added, and a reaction was performed for 40 minutes at room temperature. 0.1% Triton X-100 was added, the reaction solution was allowed to stand for 5 minutes at room temperature, and the cells were then washed three times with PBS. FITC (fluorescein isothiocyanate) labeled anti-mouse IgG antibodies (Cappel) diluted with 10% Block Ace were added, and a reaction was brought about for 40 minutes. 0.1% Triton X-100 was added, the reaction solution was allowed to stand for 5 minutes, the cells were then washed three times with PBS, and they were then observed under a fluorescent microscope.

[4] = biological target: T1, EGF receptor (A431 cells, high EGF receptor expression line) (Homo sapiens, UniProt P00533); test: EGF binding assay using A431 cells (inhibition of 125I-EGF binding); conditions: for IC50: A431 cells, 0.25 nM 125I-EGF, 90 minutes at 4° C.; for EGF/BTC relative to Met-BTC80: ratio between EGF activity and BTC activity, Met-BTC80 = 100%
T1 construct: human squamous epithelial carcinoma cells A431 (high EGF receptor expression line); endogenous in cells; host or cells: A431 human squamous epithelial carcinoma cells (intact, adherent)
Procedure: Cell growth promoting activity was assayed by means of the inhibiting activity of binding to ^125I-EGF using human squamous epithelial carcinoma cells A431 (high EGF receptor expression line).
Specifically, 100 μL of A431 cells suspended to a concentration of 10^5 cells/mL using Dulbecco's modified Eagle MEM (DMEM) medium supplemented with 10% fetal calf serum were inoculated to 96 well plates and cultured for 2 days at 37° C. in carbon dioxide gas incubators (5% carbon dioxide gas and 95% air). […] The mixtures were allowed to stand for 90 minutes at 4° C., and then washed 3 times with 200 μL of binding medium, and the cells were lysed in 200 μL of 0.1 N sodium hydroxide aqueous solution containing 1% SDS. The cell lysate was then transferred to scintillation vials, 1 mL of Scintillator A (Wako Pure Chemicals) was added, and the inhibiting activity of binding to ^125I-EGF was assayed with a scintillation counter.

AR42J cells [5] = test: β cell differentiation promoting activity using AR42J cells (anti-insulin immunofluorescence), Example 26; format: cell-based; conditions: 5 days incubation
Procedure: Cells of the AR42J cell line derived from pancreatic cancer induced by chemical carcinogens (Christophe, Am. J. Physiol., 266: G963 (1994)) were suspended to a concentration of 10^5 cells/mL in Dulbecco's modified Eagle MEM medium containing 10% fetal calf serum and one of hBTC50, Mutein A, Mutein B, or the 80-residue betacellulin (hBTC80) prepared in accordance with the method in Japanese Unexamined Patent Application (Kokai) H10-191989. 500 μL of these suspensions was inoculated on chamber slides and incubated for 5 days at 37° C. in carbon dioxide gas incubators (5% carbon dioxide gas, 95% air). After 5 days, the cells were washed once with PBS, fixed in 10% formaldehyde, and treated for 5 min with 0.1% Triton X-100. Block Ace (Snow Brand, Japan) was then added for 40 minutes of blocking at room temperature. Anti-insulin antibodies (by Advanced Immunochemicals) diluted with 10% Block Ace were added, and reacted for 40 minutes at room temperature. 0.1% Triton X-100 was added, the reaction solution was allowed to stand for 5 minutes at room temperature, and the cells were then washed three times with PBS. FITC (fluorescein isothiocyanate) labeled anti-mouse IgG antibodies (Cappel) diluted with 10% Block Ace were added, and a reaction was brought about for 40 minutes. 0.1% Triton X-100 was added, the reaction solution was allowed to stand for 5 minutes, the cells were then washed three times with PBS, and they were then observed under a fluorescent microscope.

[6] = biological target: T2, EGF receptor on human squamous epithelial carcinoma cells A431 (human, UniProt P00533 25-1210); test: competition with 0.25 nM 125I-EGF on A431 cells
T2 construct: whole, on cells; also called A431 cells (high EGF receptor expression line)
Procedure: The mixtures were allowed to stand for 90 minutes at 4° C., and then washed 3 times with 200 μL of binding medium, and the cells were lysed in 200 μL of 0.1 N sodium hydroxide aqueous solution containing 1% SDS.

[7] = system: PLAP expression AR42J cells; test: β cell differentiation promoting activity using PLAP expression AR42J cells, Example 12; format: cell-based; conditions: 5 days, varying concentrations (FIG. 6)
Procedure: as §1
The PLAP expression AR42J cells constructed in Example 11 were suspended to a concentration of 10^5 cells/mL using Dulbecco's modified Eagle MEM medium containing 10% fetal calf serum and varying concentrations of the Met-77 residue betacellulin prepared in Example 3, the Met-76 residue betacellulin prepared in Example 6, or the Met-80 residue betacellulin prepared in accordance with the method in Japanese Unexamined Patent Application (Kokai) H10-191989. 100 μL of these suspensions were inoculated to 96 well plates and incubated for 5 days at 37° C. in carbon dioxide gas incubators (5% carbon dioxide gas, 95% air). After 5 days, the supernatant was taken and treated for 30 minutes at 65° C., and 50 μL was added to 96-well microplates containing 50 μL of 2×SEAP (2M diethanolamine, 1 mM MgCl2, 20 mM homoarginine). […]

With “BTC2-76: betacellulin mutein lacking one N terminal residue and four C terminal residues, SEQ ID NO: 37” the EC50 [1] was 0.12 nM.

For “BTC24-76: betacellulin mutein lacking 23 N terminal residues and four C terminal residues, SEQ ID NO: 38”, the EC50 [1] was 0.03 nM.

With “Met-BTC80: 80 residue human betacellulin (SEQ ID NO: 35) with N terminal Met, prepared by the method of Kokai H10-191989 [reference compound]” the “PLAP activity (A 405), BTC added” value ([2]; clone AR1898-033, no BTC added: 0.034) was 0.366 A 405, the “PLAP activity (A 405), BTC added” value ([2]; clone AR1898-053, no BTC added: 0.008) was 0.089 A 405 and the “PLAP activity (A 405), BTC added” value ([2]; clone AR1898-0192, no BTC added: 0.077) was 0.752 A 405. For the same molecule, the “Differentiation into insulin-producing β cells (stained cells under fluorescent microscope)” value (AR42J cells [3]) was “cells which had differentiated into insulin-producing β cells were found”, the IC50 [4] was 1.2 nM and the “EGF/BTC relative to Met-BTC80” value [4] was 100.0%. The EC50 [1] was 0.07 nM.

B1: Met-80 residue betacellulin (ligand)
chain: MDGNSTRSPETNGLLCGDPEENCAATTTQSKRKGHFSRCPKQYKHYCIKGRCRFVVAEQTPSCVCDEGYIGARCERVDLFY
notes: Prepared in E. coli by the method of Japanese Kokai H10-191989; The N-terminal Met is retained; also called Met-BTC80; hBTC80
B1 was tested, and the “Differentiation into insulin-producing β cells (stained cells under fluorescent microscope)” value (AR42J cells [5]; anti-insulin antibody/FITC staining) was “cells which had differentiated into insulin-producing β cells, were found”, the “Incidence of insulin-producing cells” value (AR42J cells [5]; comparison between the proteins) was “no differences in the incidence of insulin-producing cells” and the IC50 [6] was 1.2 nM.

B2: Met-77 residue betacellulin: 77 residue betacellulin lacking three C terminal residues (SEQ ID NO: 1) with N terminal Met (protein)
chain: DGNSTRSPETNGLLCGDPEENCAATTTQSKRKGHFSRCPKQYKHYCIKGRCRFVVAEQTPSCVCDEGYIGARCERVD
modifications: N-terminal Met; Human
B2 was tested, and the “Differentiation into insulin-producing β cells (stained cells under fluorescent microscope)” value (AR42J cells [3]) was “cells which had differentiated into insulin-producing β cells were found” and the “Promoting activity in inducing differentiation compared with Met-80 residue betacellulin” value [7] was “virtually the same promoting activity in inducing differentiation as the Met-80 residue betacellulin”.

B3: Met-BTC76: 76 residue betacellulin lacking four C terminal residues (SEQ ID NO: 2) with N terminal Met (protein)
chain: DGNSTRSPETNGLLCGDPEENCAATTTQSKRKGHFSRCPKQYKHYCIKGRCRFVVAEQTPSCVCDEGYIGARCERV
modifications: N-terminal Met; Human
For B3, the “Differentiation into insulin-producing β cells (stained cells under fluorescent microscope)” value (AR42J cells [3]) was “cells which had differentiated into insulin-producing β cells were found”, the “Promoting activity in inducing differentiation compared with Met-80 residue betacellulin” value [7] was “virtually the same promoting activity in inducing differentiation as the Met-80 residue betacellulin” and the IC50 [4] was 95.1 nM. For the same molecule, the “EGF/BTC relative to Met-BTC80” value [4] was 5.4% and the EC50 [1] was 0.3 nM.

B4: Met-76 residue betacellulin (ligand)
chain: MDGNSTRSPETNGLLCGDPEENCAATTTQSKRKGHFSRCPKQYKHYCIKGRCRFVVAEQTPSCVCDEGYIGARCERV
notes: Lacks the four C-terminal residues (Asp Leu Phe Tyr); also called Met-BTC76; BTC1-76
In the case of B4, the IC50 [6] is reported as 95.1 nM.
